Positions of bridges follow the written chain, without caps; N, C: chain ends.

The record followed here is paper PMC9582194, “The effect of helix-inducing constraints and downsizing upon a transcription block survival-derived functional cJun antagonist” (Cell Reports. Physical Science, 2022).

The chains are these.
B1: HW11 (peptide)
peptide: Ac-LVVEEDVLEEEIEQLEEKNKALKDEIEDLQKQLEKLY-NH2
modifications: lactam 20-24
SMILES: CC[C@H](C)[C@H](NC(=O)[C@H](CCC(=O)O)NC(=O)[C@@H]1CC(=O)NCCCC[C@H](NC(=O)[C@H](CC(N)=O)NC(=O)[C@H](CCCCN)NC(=O)[C@H](CCC(=O)O)NC(=O)[C@H](CCC(=O)O)NC(=O)[C@H](CC(C)C)NC(=O)[C@H](CCC(N)=O)NC(=O)[C@H](CCC(=O)O)NC(=O)[C@@H](NC(=O)[C@H](CCC(=O)O)NC(=O)[C@H](CCC(=O)O)NC(=O)[C@H](CCC(=O)O)NC(=O)[C@H](CC(C)C)NC(=O)[C@@H](NC(=O)[C@H](CC(=O)O)NC(=O)[C@H](CCC(=O)O)NC(=O)[C@H](CCC(=O)O)NC(=O)[C@@H](NC(=O)[C@@H](NC(=O)[C@H](CC(C)C)NC(C)=O)C(C)C)C(C)C)C(C)C)[C@@H](C)CC)C(=O)N[C@@H](C)C(=O)N[C@@H](CC(C)C)C(=O)N[C@@H](CCCCN)C(=O)N1)C(=O)N[C@@H](CCC(=O)O)C(=O)N[C@@H](CC(=O)O)C(=O)N[C@@H](CC(C)C)C(=O)N[C@@H](CCC(N)=O)C(=O)N[C@@H](CCCCN)C(=O)N[C@@H](CCC(N)=O)C(=O)N[C@@H](CC(C)C)C(=O)N[C@@H](CCC(=O)O)C(=O)N[C@@H](CCCCN)C(=O)N[C@@H](CC(C)C)C(=O)N[C@@H](Cc1ccc(O)cc1)C(N)=O
notes: cyclized form of the pair HW10/HW11; NΔ24 CΔ3; source: synthetic peptide (Fmoc SPPS, on-resin lactamization, RP-HPLC purified)
B2: HW12 (peptide)
peptide: Ac-LVVEEDVLEEEIEQLEERNYALRKEIEDLQKQLEDL-NH2
notes: linear form of the pair HW12/HW13; NΔ24 CΔ3; source: synthetic peptide (Fmoc SPPS, split batch, RP-HPLC purified)
B3: HW26 (peptide)
peptide: Ac-EAEELVVEEDVLEEEIEQLEEKNKALKDEIEDLQKQY-NH2
notes: linear form of the pair HW26/HW27; NΔ20 CΔ7; source: synthetic peptide (Fmoc SPPS, RP-HPLC purified)
B4: HW18 (peptide)
peptide: Ac-KEAEDLVVEEDVLEEEIEQLEERNYALRKEIKDLQDQ-NH2
notes: linear form of the pair HW18/HW19; NΔ19 CΔ7; source: synthetic peptide (Fmoc SPPS, RP-HPLC purified)
B5: HW19 (peptide)
peptide: Ac-KEAEDLVVEEDVLEEEIEQLEERNYALRKEIKDLQDQ-NH2
modifications: lactam 1-5
notes: cyclized form of the pair HW18/HW19; NΔ19 CΔ7; source: synthetic peptide (Fmoc SPPS, on-resin lactamization, RP-HPLC purified)
B6: HW20 (peptide)
peptide: Ac-EAKELVDEEDVLEEEIEQLEERNYALRKEIEDLQKQ-NH2
notes: linear form of the pair HW20/HW21; NΔ20 CΔ7; source: synthetic peptide (Fmoc SPPS, RP-HPLC purified)
B7: HW28 (peptide)
peptide: Ac-EAEELVVEEDVLEEEIEQLEERNYALRKEIKDLQDQ-NH2
notes: linear form of the pair HW28/HW29; NΔ20 CΔ7; source: synthetic peptide (Fmoc SPPS, RP-HPLC purified)
B8: HW22 (peptide)
peptide: Ac-EAEELVVEEKVLEDEIEQLEERNYALRKEIEDLQKQ-NH2
notes: linear form of the pair HW22/HW23; NΔ20 CΔ7; source: synthetic peptide (Fmoc SPPS, RP-HPLC purified)
B9: HW24 (peptide)
peptide: Ac-EAEELVVEEDVLEEEIKQLEDRNYALRKEIEDLQKQ-NH2
notes: linear form of the pair HW24/HW25; NΔ20 CΔ7; source: synthetic peptide (Fmoc SPPS, RP-HPLC purified)
B10: HW25 (peptide)
peptide: Ac-EAEELVVEEDVLEEEIKQLEDRNYALRKEIEDLQKQ-NH2
modifications: lactam 17-21
SMILES: CC[C@H](C)[C@H](NC(=O)[C@H](CCC(=O)O)NC(=O)[C@H](CCCCN)NC(=O)[C@H](CCCNC(=N)N)NC(=O)[C@H](CC(C)C)NC(=O)[C@H](C)NC(=O)[C@H](Cc1ccc(O)cc1)NC(=O)[C@H](CC(N)=O)NC(=O)[C@H](CCCNC(=N)N)NC(=O)[C@@H]1CC(=O)NCCCC[C@H](NC(=O)[C@@H](NC(=O)[C@H](CCC(=O)O)NC(=O)[C@H](CCC(=O)O)NC(=O)[C@H](CCC(=O)O)NC(=O)[C@H](CC(C)C)NC(=O)[C@@H](NC(=O)[C@H](CC(=O)O)NC(=O)[C@H](CCC(=O)O)NC(=O)[C@H](CCC(=O)O)NC(=O)[C@@H](NC(=O)[C@@H](NC(=O)[C@H](CC(C)C)NC(=O)[C@H](CCC(=O)O)NC(=O)[C@H](CCC(=O)O)NC(=O)[C@H](C)NC(=O)[C@H](CCC(=O)O)NC(C)=O)C(C)C)C(C)C)C(C)C)[C@@H](C)CC)C(=O)N[C@@H](CCC(N)=O)C(=O)N[C@@H](CC(C)C)C(=O)N[C@@H](CCC(=O)O)C(=O)N1)C(=O)N[C@@H](CCC(=O)O)C(=O)N[C@@H](CC(=O)O)C(=O)N[C@@H](CC(C)C)C(=O)N[C@@H](CCC(N)=O)C(=O)N[C@@H](CCCCN)C(=O)N[C@@H](CCC(N)=O)C(N)=O
notes: cyclized form of the pair HW24/HW25; NΔ20 CΔ7; source: synthetic peptide (Fmoc SPPS, on-resin lactamization, RP-HPLC purified)
B11: HW21 (peptide)
peptide: Ac-EAKELVDEEDVLEEEIEQLEERNYALRKEIEDLQKQ-NH2
modifications: lactam 3-7
SMILES: CC[C@H](C)[C@H](NC(=O)[C@H](CCC(=O)O)NC(=O)[C@H](CCCCN)NC(=O)[C@H](CCCNC(=N)N)NC(=O)[C@H](CC(C)C)NC(=O)[C@H](C)NC(=O)[C@H](Cc1ccc(O)cc1)NC(=O)[C@H](CC(N)=O)NC(=O)[C@H](CCCNC(=N)N)NC(=O)[C@H](CCC(=O)O)NC(=O)[C@H](CCC(=O)O)NC(=O)[C@H](CC(C)C)NC(=O)[C@H](CCC(N)=O)NC(=O)[C@H](CCC(=O)O)NC(=O)[C@@H](NC(=O)[C@H](CCC(=O)O)NC(=O)[C@H](CCC(=O)O)NC(=O)[C@H](CCC(=O)O)NC(=O)[C@H](CC(C)C)NC(=O)[C@@H](NC(=O)[C@H](CC(=O)O)NC(=O)[C@H](CCC(=O)O)NC(=O)[C@H](CCC(=O)O)NC(=O)[C@@H]1CC(=O)NCCCC[C@H](NC(=O)[C@H](C)NC(=O)[C@H](CCC(=O)O)NC(C)=O)C(=O)N[C@@H](CCC(=O)O)C(=O)N[C@@H](CC(C)C)C(=O)N[C@@H](C(C)C)C(=O)N1)C(C)C)[C@@H](C)CC)C(=O)N[C@@H](CCC(=O)O)C(=O)N[C@@H](CC(=O)O)C(=O)N[C@@H](CC(C)C)C(=O)N[C@@H](CCC(N)=O)C(=O)N[C@@H](CCCCN)C(=O)N[C@@H](CCC(N)=O)C(N)=O
notes: cyclized form of the pair HW20/HW21; NΔ20 CΔ7; source: synthetic peptide (Fmoc SPPS, on-resin lactamization, RP-HPLC purified)
B12: HW10 (peptide)
peptide: Ac-LVVEEDVLEEEIEQLEEKNKALKDEIEDLQKQLEKLY-NH2
notes: linear form of the pair HW10/HW11; NΔ24 CΔ3 with point mutations for the bridging K and D; source: synthetic peptide (Fmoc SPPS, split batch, RP-HPLC purified)
B13: HW17 (peptide)
peptide: Ac-EAEELVVEEDVLEEEIEQLEERNYALRKEIEDLQ-NH2
modifications: lactam 28-32
notes: cyclized form of the pair HW16/HW17; NΔ20 CΔ9; source: synthetic peptide (Fmoc SPPS, on-resin lactamization, RP-HPLC purified)
B14: HW16 (peptide)
peptide: Ac-EAEELVVEEDVLEEEIEQLEERNYALRKEIEDLQ-NH2
notes: linear form of the pair HW16/HW17; NΔ20 CΔ9; source: synthetic peptide (Fmoc SPPS, RP-HPLC purified)
B15: HW13 (peptide)
peptide: Ac-LVVEEDVLEEEIEQLEERNYALRKEIEDLQKQLEDL-NH2
modifications: lactam 31-35
notes: cyclized form of the pair HW12/HW13; NΔ24 CΔ3; source: synthetic peptide (Fmoc SPPS, on-resin lactamization, RP-HPLC purified)
B16: HW2 (peptide)
peptide: Ac-LARENEELEKEAEELVVEEDVLEEEIEQLEERNYALRKEIEDLQKQLEKL-NH2
notes: truncation NΔ10 CΔ3 of HW1; source: synthetic peptide (Fmoc SPPS, RP-HPLC purified)
B17: HW15 (peptide)
peptide: Ac-EAEELVVEEDVLEEEIEQLEEKNKALKDEIEDLY-NH2
modifications: lactam 24-28
SMILES: CC[C@H](C)[C@H](NC(=O)[C@H](CCC(=O)O)NC(=O)[C@@H]1CC(=O)NCCCC[C@H](NC(=O)[C@H](CC(N)=O)NC(=O)[C@H](CCCCN)NC(=O)[C@H](CCC(=O)O)NC(=O)[C@H](CCC(=O)O)NC(=O)[C@H](CC(C)C)NC(=O)[C@H](CCC(N)=O)NC(=O)[C@H](CCC(=O)O)NC(=O)[C@@H](NC(=O)[C@H](CCC(=O)O)NC(=O)[C@H](CCC(=O)O)NC(=O)[C@H](CCC(=O)O)NC(=O)[C@H](CC(C)C)NC(=O)[C@@H](NC(=O)[C@H](CC(=O)O)NC(=O)[C@H](CCC(=O)O)NC(=O)[C@H](CCC(=O)O)NC(=O)[C@@H](NC(=O)[C@@H](NC(=O)[C@H](CC(C)C)NC(=O)[C@H](CCC(=O)O)NC(=O)[C@H](CCC(=O)O)NC(=O)[C@H](C)NC(=O)[C@H](CCC(=O)O)NC(C)=O)C(C)C)C(C)C)C(C)C)[C@@H](C)CC)C(=O)N[C@@H](C)C(=O)N[C@@H](CC(C)C)C(=O)N[C@@H](CCCCN)C(=O)N1)C(=O)N[C@@H](CCC(=O)O)C(=O)N[C@@H](CC(=O)O)C(=O)N[C@@H](CC(C)C)C(=O)N[C@@H](Cc1ccc(O)cc1)C(N)=O
notes: cyclized form of the pair HW14/HW15; NΔ20 CΔ10; source: synthetic peptide (Fmoc SPPS, on-resin lactamization, RP-HPLC purified)

T1 sequence (P05412 252-315): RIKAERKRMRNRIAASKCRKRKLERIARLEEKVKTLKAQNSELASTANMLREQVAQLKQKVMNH

The first data set concerns the target T1, cJun (60 amino acid construct encompassing the entire bZIP domain) (UniProt P05412 252-315). Briefly: cell-based or functional assay.
Conditions: not given
Take B1: the “IC50 CD: peptide added to pre-incubated cJun (20 μM) and TRE DNA (5 μM); blocks cJun/TRE DNA binding” value (from here on “IC50 CD … blocks cJun/TRE DNA binding”) is 73.5 µM.

As to B2, the “IC50 CD … blocks cJun/TRE DNA binding” value was found to be 94.6 µM.

In the case of B3, the “IC50 CD … blocks cJun/TRE DNA binding” value amounted to 121 µM.

Regarding B4, the “IC50 CD … blocks cJun/TRE DNA binding” value was 115 µM.

Take B5: the “IC50 CD … blocks cJun/TRE DNA binding” value came to 92.5 µM.

On to B6, for which the “IC50 CD … blocks cJun/TRE DNA binding” value is 100 µM.

With B7, the “IC50 CD … blocks cJun/TRE DNA binding” value was determined as 101 µM.

For B8, the “IC50 CD … blocks cJun/TRE DNA binding” value came to 114 µM.

Turning to B9, the “IC50 CD … blocks cJun/TRE DNA binding” value was 98.9 µM.

As for B10, the “IC50 CD … blocks cJun/TRE DNA binding” value was determined as 94.4 µM.

For the molecule B11, the “IC50 CD … blocks cJun/TRE DNA binding” value came to 81.1 µM.

Consider B12, for which the “IC50 CD … blocks cJun/TRE DNA binding” value turned out to be 83.9 µM.

As for B13, the “IC50 CD … blocks cJun/TRE DNA binding” value was 140 µM.

As to B14, the “IC50 CD … blocks cJun/TRE DNA binding” value came to 725 µM.

Regarding B15, the “IC50 CD … blocks cJun/TRE DNA binding” value is 69 µM.

With B16, the “IC50 CD … blocks cJun/TRE DNA binding” value came out at 16.6 µM.

For B17, the “IC50 CD … blocks cJun/TRE DNA binding” value turned out to be 118 µM.

In another data set the target is T1, cJun (60 amino acid construct …). Briefly: CD thermal denaturation; peptide (5 μM) with cJun (5 μM); ellipticity at 222 nm, 1°C to 90°C; 20 mM potassium phosphate, 150 mM potassium fluoride, 2 mM TCEP, pH 7.4; two-state fit gives the Tm of the peptide-cJun heterodimer; duplicate experiments. Particulars: both partners purified.
Take B1: the “Tm of the peptide-cJun heterodimer” value came out at 67.2 °C.

Turning to B2, the “Tm of the peptide-cJun heterodimer” value came to 62.1 °C.

As for B3, the “Tm of the peptide-cJun heterodimer” value turned out to be 56.2 °C.

Consider B4, for which the “Tm of the peptide-cJun heterodimer” value was 56.5 °C.

In the case of B5, the “Tm of the peptide-cJun heterodimer” value is 58.5 °C.

As to B6, the “Tm of the peptide-cJun heterodimer” value is 57.5 °C.

On to B7, for which the “Tm of the peptide-cJun heterodimer” value was found to be 55.6 °C.

Regarding B8, the “Tm of the peptide-cJun heterodimer” value came to 54.9 °C.

As for B9, the “Tm of the peptide-cJun heterodimer” value worked out at 55.5 °C.

As to B10, the “Tm of the peptide-cJun heterodimer” value was 60.9 °C.

Consider B11, for which the “Tm of the peptide-cJun heterodimer” value is 59.4 °C.

Turning to B12, the “Tm of the peptide-cJun heterodimer” value worked out at 64.3 °C.

In the case of B13, the “Tm of the peptide-cJun heterodimer” value was 57.2 °C.

On to B14, for which the “Tm of the peptide-cJun heterodimer” value is 53.8 °C.

As for B15, the “Tm of the peptide-cJun heterodimer” value amounted to 68.3 °C.

For the molecule B16, the “Tm of the peptide-cJun heterodimer” value worked out at 68.5 °C.

As for B17, the “Tm of the peptide-cJun heterodimer” value was 52.5 °C.
